Where “and” joins values, the source holds several entries; their conditions need not be identical. Equal values may be shown once.
Molecular target: T1, LpoB(sol) (signal sequence and lipid anchor of LpoB replaced by an oligohistidine tag)
T1 construct: also called His-LpoB(sol); source: E. coli BL21(DE3) with pET28LpoB, purified (HisTrap, thrombin, HiTrap Q flow-through, Superdex 200)
Test: SPR; IBIS-MX96; PBP1B Gly55AzF immobilised through its azide on a SensEye P-NH2 sensor coated with sulfo-dibenzylcyclooctyne-NHS ester, blocked with azidoethanol; LpoB injected at different concentrations; running buffer 10 mM Tris/maleate pH 7.5, 150 mM NaCl, 0.05 % Triton X-100; KD from maximum RU against concentration, one-site saturation
Settings: both partners purified

Kd: 0.71 to 0.97 µM and 0.84 µM
B1: PBP1B Gly55AzF (N-terminal His6-tagged PBP1Bγ with p-azidophenylalanine in place of Gly55) (enzyme)
chain: MPRKGKGKGKFRKPRGKRGWLWLLLKLAIVFAVLIAIYGVYLDQKIRSRIDGKVWQLPAAVYGRMVNLEPDMTISKNEMVKLLEATQYRQVSKMTRPGEFTVQANSIEMIRRPFDFPDSKEGQVRARLTFDGDHLATIVNMENNRQFGFFRLDPRLITMISSPNGEQRLFVPRSGFPDLLVDTLLATEDRHFYEHDGISLYSIGRAVLANLTAGRTVQGASTLTQQLVKNLFLSSERSYWRKANEAYMALIMDARYSKDRILELYMNEVYLGQSGDNEIRGFPLASLYYFGRPVEELSLDQQALLVGMVKGASIYNPWRNPKLALERRNLVLRLLQQQQIIDQELYDMLSARPLGVQPRGGVISPQPAFMQLVRQELQAKLGDKVKDLSGVKIFTTFDSVAQDAAEKAAVEGIPALKKQRKLSDLETAIVVVDRFSGEVRAMVGGSEPQFAGYNRAMQARRSIGSLAKPATYLTALSQPKIYRLNTWIADAPIALRQPNGQVWSPQNDDRRYSESGRVMLVDALTRSMNVPTVNLGMALGLPAVTETWIKLGVPKDQLHPVPAMLLGALNLTPIEVAQAFQTIASGGNRAPLSALRSVIAEDGKVLYQSFPQAERAVPAQAAYLTLWTMQQVVQRGTGRQLGAKYPNLHLAGKTGTTNNNVDTWFAGIDGSTVTITWVGRDNNQPTKLYGASGAMSIYQRYLANQTPTPLNLVPPEDIADMGVDYDGNFVCSGGMRILPVWTSDPQSLCQQSEMQQQPSGNPFDQSSQPQQQPQQQPAQQEQKDSDGVAGWIKDMFGSN
modifications: p-azidophenylalanine in place of Gly55; coupled through this azide to dibenzylcyclooctyne on the chip surface

— article PMC5298014, “Site‐Specific Immobilization of the Peptidoglycan Synthase PBP1B on a Surface Plasmon Resonance Chip Surface” (Chembiochem, 2016)
